# B1: recombinant mouse VEGF-B^186 (protein, listed as Homo sapiens)
# chain: MSPLLRRLLLAALLQLAPAQAPVSQPDAPGHQRKVVSWIDVYTRATCQPREVVVPLTVELMGTVAKQLVPSCVTVQRCGGCCPDDGLECVPTGQHQVRMQILMIRYPSSQLGEMSLEEHSQCECRPKKKDSAVKPDRAATPHHRPQPRSVPGWDSAPGAPSPADITHPTPAPGPSAHAAPSTTSALTPGPAAAAADAAASSVAKGGA
# notes: vascular endothelial growth factor B; recombinant mouse VEGF-B186 (R&D 767-VE-010)
# Key:
# [1] = test system: corneal sensation of C57BL/6 and Vegf-b−/− mice; assay: Corneal nerve sensation testing (von Frey Hairs); assay type: in vivo, mouse
# Description: The degree of recovered nerve sensation in the injured cornea was evaluated using calibrated von Frey Hairs (North Coast Medicals). In this method the center of the cornea of un-anesthetized mouse was touched with thin filaments of ascending stiffness (0.008 to 1.4 g) until the hairs buckled and a blink response was elicited. C57BL/6 wild type and Vegf-b^−/− mice subjected to corneal epithelial debridement and receiving subconjuntival injection of VEGF-B, as well as their respective controls, were evaluated to determine the minimal force (g) needed for a blink response. Eight mice were tested in each group in three individual experiments.
# [2] = test system: cornea; conditions: mouse, in vivo
# Description: (§1) Wild type C57BL/6 and Vegf-b^−/− mice were subject to corneal epithelial debridement as described above or left intact. A 5 ul volume containing 0.5 ng VEGF-B^186 in PBS was injected subconjunctivally, at the lateral temporal bulbar conjunctiva, using a 10-μl micro-syringe (Hamilton Co). Equal volume of 0.1% bovine serum albumin (BSA) was used in control mice. The recovery of the corneal epithelial injury was imaged at 24, 40 and 48 hours by applying 1% fluorescein solution to the corneal surface and wounds photographed under diffuse cobalt blue light attached to a slit lamp bio-microscope (Nikon FS-3, Nikon) connected to a digital camera (Canon EOS 60D). The corneal epithelial defect areas were quantified by analyzing the images with Photoshop CS4 (Adobe). Corneas were harvested after one week for immunodetection of nerves. Possible growth of blood vessel into the cornea was monitored by slit lamp examination.
# [3] = test system: corneal nerves of thy1-YFP mice; assay: Corneal micropocket assay (VEGF-B releasing pellet); assay type: in vivo, mouse
# Description: A sucralfate/hydron pellet impregnated with VEGF-B (100 ng/pellet) or vehicle was implanted into a corneal micropocket in anesthetized thy1-YFP mice subjected to a partial lamellar incision parallel to the limbus. Rogers, M. S. et al., The mouse cornea micropocket angiogenesis assay, Nature protocols 2, 2545-2550 (2007). Mice were allowed to recover for a day, after which a subset received a corneal debridement that removed a circular 2-mm region of central epithelium and the underlying sub-basal nerves. The corneas were harvested 3 days later, fixed in 4% paraformaldehyde (PFA) for 30 minutes, mounted in Vectashield medium (Vector Labs H1000) as whole mounts, and nerves imaged using the AxioObserver system as described above.
# Harvested corneas from thy1-YFP mice were fixed in 4% PFA for 1 hr and then stained with 4,6-diamidino-2-phenylindole (DAPI) to label nuclei before mounting. The YFP fluorescent nerves were imaged with a fluorescence microscope at the site of pellet implantation and at a site 180 degrees opposite to the pellet. Images were analyzed using Neurolucida. […] wild type and Vegf-b^−/− mouse corneas were flat mounted and fixed as described. Pan, Z., Fukuoka et al., FASEB J. 27, 2756-2767 (2013). Samples were stained with rabbit anti-β3 tubulin antibody (Abcam 18207) overnight at 4° C., followed by alexaFluor568-conjugated goat anti-rabbit IgG (Life Technologies A11011) at room temperature for 1 hr and counter-stained with DAPI.
# [4] = test system: corneal epithelium of C57BL/6 and Vegf-b−/− mice; assay: Corneal epithelial wound healing after debridement (fluorescein staining); assay type: in vivo, mouse; conditions: 0.5 ng subconjunctival, 48 hours (FIG. 6A)
# Description: as §1
# [5] = test system: TG neuronal cells; assay: Cell viability assay (Live/Dead) of TG neuronal cells; assay type: cell-based, mouse; conditions: 50 ng/ml single dose on first day of culture without serum; day 2 and 3
# Description: The effect of VEGF-B on the survival of TG neuronal cells was evaluated with the Live/Dead Viability/Cytotoxicity kit (Invitrogen), as described in Pan, Z., Fukuoka et al., FASEB J. 27, 2756-2767 (2013).
# [6] = test system: corneal nerves of C57BL/6 and Vegf-b−/− mice; assay: Corneal nerve regeneration after epithelial debridement, subconjunctival injection; assay type: in vivo, mouse; conditions: 0.5 ng subconjunctival single bolus, 7 days after debridement
# Description: as §1, with “Vegf-b^-/-” for “Vegf-b^−/−”, “examination. […] The YFP fluorescent nerves were imaged with a fluorescence microscope at the site of pellet implantation and at a site 180 degrees opposite to the pellet. Images were analyzed using Neurolucida. […] Quantification of corneal nerves regeneration was obtained from corneal wholemount images traced and analyzed with Neurolucida 9 software. […] Central and peripheral cornea nerve densities were calculated and expressed as a percentage of control.” for “examination.”
molecule,measurement,setting,value
B1,corneal sensation compared with untreated Vegf-b−/− mice,"[1]; Vegf-b−/− mice, 2 weeks post-injury (FIG. 4F)",significantly improved sensation
same,functional recovery of corneal sensation,"[1]; wild type and Vegf-b−/− mice, 7 days of treatment (FIG. 4E)",began to improve
same,corneal sensation,"[1]; wild-type mice, 2 weeks post-injury (FIG. 4F)",completely restored
same,neovascularization of the cornea,[2],did not produce any unwanted neovascularization
same,innervation at sites of injury,"[3]; 100 ng/pellet plus superficial corneal debridement, versus vehicle, 3 days",significantly increased innervation throughout sites of injury
same,corneal nerve density or patterning,"[3]; 100 ng/pellet, absence of injury, 3 days",no alteration of corneal nerve density or patterning
same,nerve density at the site of pellet implantation,"[3]; 100 ng/pellet, limited (focal) injury, versus vehicle",significant increased nerve density
same,injured epithelial area compared with untreated controls,[4]; Vegf-b−/− mice,only half the injured area
same,epithelial healing,[4]; wild type mice,almost complete healing
same,cells surviving (neuronal viability),[5],50%
same,corneal nerve regeneration into the injured zone,[6]; Vegf-b−/− mice,confined to the peripheral cornea
same,corneal nerve regeneration into the injured zone,[6]; wild-type mice,enhanced nerve regeneration in both the central and peripheral corneas
